The assay deals with Diet-Induced Obese (DIO) mouse. Briefly: Diet-Induced Obese (DIO) mouse study: hFGF7 alone and with semaglutide, 28 days of dosing. To be noted: DIO mice. The assay is classed as in vivo, C57Bl/6 mice. How it is done:
Obesity and insulin resistance, an early stage in the development of type 2 diabetes (also known as pre-diabetes), was induced in C57Bl/6 mice by feeding the mice with a high fat diet (Research Diets, Cat #D12492, 60% fat kcal) for 12 weeks starting at 6 weeks of age, and throughout the period of compound dosing. The mice were housed at 22-23° C. and abundant nestlets/bedding material was provided to allow the animals to maintain a microenvironment close to their thermoneutrality of 28-30° C., starting 2 weeks prior to the dosing period and for the full dosing period with a 12 h/12 h light/dark cycle. These environmental conditions are understood by those skilled in the art to reduce the stimulus for maintaining BAT, a thermogenic tissue that is recruited physiologically by cold stimulus, and permit a wider window for observing effects related to BAT recruitment.
Mice were dosed once per day by intraperitoneal injection (100 μl per mouse) with vehicle (9.6 mg/ml mannitol, 4.8 mg/ml sucrose, 0.37 mg/ml L-histidine, 0.025 mg/ml polysorbate 20 (Tween 20, CAS #9005-64-5), […], also referred to as EGS0501 in corresponding figures) dissolved in the vehicle for 28 days. In addition, some mice also received semaglutide (0.012 mg/kg=3 nmol/kg) every 3 days by intraperitoneal injection (100 μl per mouse) dissolved in the vehicle.
Body weight was recorded every day and body composition (fat and lean mass with EchoMRI) was assessed at the end of the study (University of Cincinnati Mouse Metabolic Phenotyping Center). At the end of the dosing period, animals were fasted for 6 hours and euthanized by CO2, blood was collected, and plasma was isolated and frozen at −20° C. Plasma glucose, insulin and leptin levels were assessed at baseline and at the end of the dosing period (mice were fasted for 6 hours before all plasma collection) (University of Cincinnati Mouse Metabolic Phenotyping Center). Insulin sensitivity was determined by HOMA-IR.
Data from in vivo mouse studies are presented as means±SEM. Significance values were evaluated based on the unpaired two-tailed t-test versus vehicle using GraphPad Prism version 7 or 8 (GraphPad Software, San Diego, CA). To assess synergistic effects of A and B, the combination A+B was compared to the sum of A alone and B alone. To quantify synergistic effects, we used percent changes from baseline when baseline data were available and used the difference from vehicle for parameters without baseline data.

B1: hFGF7: recombinant human Fibroblast Growth Factor-7, also referred to as EGS0501; SEQ ID NO: 8 is the sequence for human FGF7 (protein, listed as Homo sapiens)
chain: MHKWILTWILPTLLYRSCFHIICLVGTISLACNDMTPEQMATNVNCSSPERHTRSYDYMEGGDIRVRRLFCRTQWYLRIDKRGKVKGTQEMKNNYNIMEIRTVAVGIVAIKGVESEFYLAMNKEGKLYAKKECNEDCNFKELILENHYNTYASAKWTHNGGEMFVALNQKGIPVRGKKTKKEQKTAHFLPMAIT
modifications: (1)..(194) Fibroblast Growth Factor-7
As to B1, for the setting “hFGF7 0.5 mg/kg ip once a day”, the “plasma glucose compared to vehicle” value was “significant effect”. Moreover, where the note is “hFGF7 1 mg/kg ip once a day”, the “body weight compared to vehicle” value is given as “significant decreases”, the “epididymal white adipose (WATepi) depot weight compared to vehicle” value was “significant decreases”, the “insulin resistance index (HOMA-IR) compared to vehicle” value was “significant decreases” and the “plasma glucose compared to vehicle” value is reported as “significant decreases”. In addition, for the setting “hFGF7 1 mg/kg ip once a day”, the “plasma insulin compared to vehicle” value was “significant decreases” and the “plasma leptin compared to vehicle” value is “significant decreases”.

These data come from US20240238374A1, “METHODS AND COMPOSITIONS FOR INDUCING BROWN ADIPOGENESIS” (ENERGESIS PHARMACEUTICALS, INC., priority 2021, published 2024).
